Laboratory results from the supplement of paper PMC10567573.

B1: HESX1 (parent)
chain: HVPNPPSGISFPSVVDHPMPEERA

Variants of: B1
Experiment: protein stability index of a GFP-peptide fusion (GPS, HEK-293T) (PSI 1-6); higher = more stable
Conditions: c terminus: a fixed tail appended
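Also: lentivirally expressed fusions sorted by FACS into six bins by GFP to DsRed ratio, PSI derived from sequencing read proportions per bin multiplied by bin number.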

Protein stability index of substitutions, site by site:
P12: F 1.75 | Y 2.56 | V 2.99 | K 3.83 | H 3.38 | M 2.72 | T 3.78 | Q 3.92 | I 2.43 | E 4.57 | L 2.79 | S 4.01 | A 3.44
M19: F 2.65 | L 2.39 | Q 3.17 | I 2.59 | E 3.69 | S 3.18 | W 2.29 | K 3.31 | R 2.83 | Y 2.27
S7: G 2.4 | Q 2.84 | V 3.3 | C 2.38 | F 2.15 | A 3.88 | D 2.8 | N 2.99 | M 2.74 | Y 2.04 | H 2.54 | I 3.4 | P 2.7 | L 3.61 | K 2.93
I9: L 2.14 | K 3.53 | A 3.04 | G 3.59 | Q 3.62 | F 3.22 | E 3.58 | R 2.67 | M 2.5 | Y 2.43 | W 2.37 | D 4.1 | S 3.33 | T 3.8
P3: L 3.88 | D 5.34 | V 3.86 | I 3.96 | H 4.13 | N 4 | C 3.54 | T 3.9 | Y 3.54 | Q 4.09 | W 2.94 | M 4.21 | A 3.79 | S 3.78
D16: R 2.51 | V 2.35 | T 2.03 | I 1.92 | K 2.21 | L 2.36 | M 2.19 | E 2.73 | Q 2.51 | P 2.37 | C 2.4 | S 2.22 | A 2.72 | N 2 | F 1.9
S10: N 3.5 | G 2.25 | A 2.79 | Y 2.18 | F 2.61 | R 2.03 | C 2.19 | V 2.58 | I 2.59 | H 2.81 | K 2.38 | D 3.77 | T 2.97 | M 2.56 | P 2.29
P5: H 2.6 | S 3.76 | D 3.96 | C 2.45 | K 2.69 | N 3.03 | A 2.71 | V 2.82 | M 2.95 | Q 3.5 | T 2.74 | W 2.39 | Y 2.03 | G 1.93 | E 3.81 | L 2.53 | I 3.02 | R 3.28
P6: R 1.71 | Y 2.39 | C 1.69 | Q 2.67 | G 1.81 | I 2.24 | K 1.78 | E 2.98 | M 2.63 | S 2.4 | V 2.11 | H 1.83 | D 2.56 | T 2.13
R23: T 2.6 | Y 2.34 | G 3.19 | S 2.36 | P 2.76 | I 2.58 | C 2.56 | M 2.38 | E 2.76 | D 3 | A 2.53 | V 2.49
G8: N 3.48 | V 2.87 | S 3.03 | E 3.01 | I 2.83 | L 3.17 | D 4.1 | P 4.09 | Y 2.09 | Q 3.18 | K 3.62 | F 2.84 | W 2.87 | H 3.49 | C 2.36 | M 2.59
P20: L 2.48 | C 2.45 | H 2.65 | I 2.49 | R 2.88 | D 2.98 | Y 2.24 | F 2.21 | A 2.74 | S 2.82 | G 2.61
H17: D 3.28 | Q 2.68 | S 3.01 | N 2.8 | V 2.57 | A 3.2 | Y 2.52 | P 2.11 | K 2.24 | R 2.77 | F 2.15 | I 2.66 | E 3.29
F11: H 4.48 | V 4.42 | E 5.4 | P 5.21 | R 4.37 | Q 4.83 | D 5.23 | L 4.93 | T 4.8 | K 5.12 | G 4.65
E21: F 1.96 | T 2.52 | A 2.49 | K 1.89 | P 2.06 | V 2.48 | R 2.52 | I 1.95 | L 1.97 | W 2 | Q 2.33 | S 2.56 | C 2.71 | G 2.08 | D 2.85 | H 2.45 | M 1.86
V2: K 5 | Q 5.26 | S 5.06 | F 4.78 | C 4.32 | T 4.92 | I 4.37 | H 4.86 | W 4.53 | N 5.14 | L 5 | Y 5.18 | D 5.52 | E 5.7
E22: R 2.26 | T 2.33 | V 2.16 | W 2.37 | Q 2.77 | P 2.17 | L 1.94 | C 2.15 | M 2.15 | I 2.75 | G 2.08 | F 1.9
N4: R 4.18 | L 4.27 | M 3.04 | F 3.47 | Y 3.06 | G 1.66 | A 1.65 | H 3.09 | E 3.8 | C 2.23 | W 3.44 | T 2.22 | K 3.76 | D 3.88 | Q 3.45
V15: E 3.93 | N 3.22 | S 2.99 | C 2.04 | Q 3.63 | W 2.17 | D 4.55 | P 3.06 | K 3.2 | G 3.85 | F 3.28 | L 3.61
P18: I 2.36 | G 2.43 | A 2.61 | K 2.7 | D 2.78 | T 2.51 | S 2.61 | M 2.49 | F 2.42 | E 2.85 | V 2.64 | L 2.56 | H 2.49
H1: V 5.32 | P 5.28 | C 4.48 | N 5.29 | A 5.22 | T 5.62 | I 4.77 | Y 2.25 | Q 5.07 | K 4.82 | F 3.54 | E 5.06 | R 4.62 | W 4.33 | L 4.51
S13: M 2.08 | F 1.89 | Y 1.94 | A 2.55 | R 2.59 | K 1.71 | D 3.94 | V 2.43 | L 2.09 | I 2.58 | W 2.14 | Q 2.71 | N 3.04 | H 2.33 | C 2.45 | T 2.45
A24: P 2.98 | Q 2.38 | R 2.87 | K 2.63 | L 2.32 | C 2.09 | W 1.91 | G 2.33 | M 2.77 | S 2.5 | D 2.77 | H 2.65 | F 2.3 | Y 2.13 | V 2.98 | T 2.87 | N 2.74
V14: F 3.57 | M 3.1 | H 3.86 | E 4.36 | L 3.9 | S 3.52 | W 3.59 | A 3.13 | N 4.43 | G 4.21 | Y 3.21 | C 2.25
